Experimental data: patent publication US5998142, “Systematic evolution of ligands by exponential enrichment: chemi-SELEX” (NeXstar Pharmaceuticals, Inc.)
Residue numbers refer to the chain shown, from its start.

B1: 12.1 (ssRNA)
RNA: GGGAGCUCAGAAUAAACGCUCAAAGCUGUUGGCAGCGCUGGUGAAGGGAUAGGCUUCGACAUGAGGCCCGGAUCCGGC
modifications: 5'-GMPS
B2: 12.6 (ssRNA)
RNA: GGGAGCUCAGAAUAAACGCUCAAGCGGUAACAUGCUGGAUCUCAGGAAACCGCUUCGACAUGAGGCCCGGAUCCGGC
modifications: 5'-GMPS
B3: 12.45 (ssRNA)
RNA: B2 RNA with C53U
modifications: 5'-GMPS
B4: 12.24 (ssRNA)
RNA: GGGAGCUCAGAAUAAACGCUCAACGUCAGCGGAUCUCCAUUGCGUUAUACGGGUUCGACAUGAGGCCCGGAUCCGGC
modifications: 5'-GMPS
B5: 12.22 (ssRNA)
RNA: GGGAGCUCAGAAUAAACGCUCAAUGCCACUUUUGUUCGGAUCUUAGGAAGGCAUUCGACAUGAGGCCCGGAUCCGGC
modifications: 5'-GMPS
B6: 10.28 (ssRNA)
RNA: GGGAGCUCAGAAUAAACGCUCAACGUUUAGGACUCCCCCGUUCGUCGAGCGAAUUCGACAUGAGGCCCGGAUCCGGC
modifications: 5'-GMPS
B7: 12.4 (ssRNA)
RNA: GGGAGCUCAGAAUAAACGCUCAACGAAUCAAUGCGCGGAUCUCAGGAUAUUCGUUCGACAUGAGGCCCGGAUCCGGC
modifications: 5'-GMPS
B8: 12.3 (ssRNA)
RNA: GGGAGCUCAGAAUAAACGCUCAACAUCACAACUUGUUGUCCUGGUCGAUGUCCUUCGACAUGAGGCCCGGAUCCGGC
modifications: 5'-GMPS
B9: 12.9 (ssRNA)
RNA: GGGAGCUCAGAAUAAACGCUCAAGUGGAGCUUCGUGACUUGGUCGGAGCCGUGUUCGACAUGAGGCCCGGAUCCGGC
modifications: 5'-GMPS
B10: 12.47 (ssRNA)
RNA: GGGAGCUCAGAAUAAACGCUCAAUGUGUGAGUGGAUCCGUUCCCCGCCUGGUGUUCGACAUGAGGCCCGGAUCCGGC
modifications: 5'-GMPS
B11: 12.46 (ssRNA)
RNA: GGGAGCUCAGAAUAAACGCUCAAUGGACACAACUCCAUUCAUCCCGGGACCGCUGUUCGACAUGAGGCCCGGAUCCGGC
modifications: 5'-GMPS
B12: 12.14 (ssRNA)
RNA: GGGAGCUCAGAAUAAACGCUCAAACGUCAUUCCGAGUCGGGUUCGUUCCCCGCUUCGACAUGAGGCCCGGAUCCGGC
modifications: 5'-GMPS

Molecular target: bradykinin (BK) (UniProt P01042 P01042:381-389)
Sequence (P01042 whole entry, looked up, one chain of several): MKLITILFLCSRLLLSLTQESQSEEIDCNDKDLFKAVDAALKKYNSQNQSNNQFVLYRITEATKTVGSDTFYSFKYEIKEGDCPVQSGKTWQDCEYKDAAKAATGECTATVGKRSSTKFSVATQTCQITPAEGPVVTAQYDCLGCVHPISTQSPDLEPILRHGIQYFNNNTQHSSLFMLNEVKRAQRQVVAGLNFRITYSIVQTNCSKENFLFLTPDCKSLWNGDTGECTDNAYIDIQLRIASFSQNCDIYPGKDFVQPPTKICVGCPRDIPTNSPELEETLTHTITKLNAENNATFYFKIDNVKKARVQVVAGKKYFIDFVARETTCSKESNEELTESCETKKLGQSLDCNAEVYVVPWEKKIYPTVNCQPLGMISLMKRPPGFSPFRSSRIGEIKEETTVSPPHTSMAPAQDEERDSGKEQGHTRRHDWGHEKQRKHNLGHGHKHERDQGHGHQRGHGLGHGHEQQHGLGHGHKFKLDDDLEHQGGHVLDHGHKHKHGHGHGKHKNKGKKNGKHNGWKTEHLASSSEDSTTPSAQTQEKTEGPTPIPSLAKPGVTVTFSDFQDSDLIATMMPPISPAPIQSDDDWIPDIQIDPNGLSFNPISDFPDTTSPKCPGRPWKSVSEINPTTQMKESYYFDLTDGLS
Assay: competition; inhibition of reaction of 12.1 with BrBK; +/-60
Conditions: tags: native peptide

Binder	Ki [µM]
B1	140

Molecular target: bradykinin, N-bromoacetylated (BrBK) (UniProt P01042 P01042:381-389)
Sequence (P01042 whole entry, looked up, one chain of several): as above
Assay: kobs covalent reaction, APM gel, 0 C, 5 mM MgCl2
Conditions: protein: synthetic; tags: synthetic peptide, N-terminal bromoacetyl
Method: Reverse transcription and polymerase chain reaction were carried out as reported by Schneider et al., (FASEB, 7, 201 (1993)). […] Reactions to determine $kobs$ values were carried out at 0° C. in reaction buffer (50 mM HEPES, pH 7.0, 5 mM MgCl_2, 150 mM NaCl) at 2 µM GMPS-RNA and 130 µM BrBK, with monitoring at 0, 1, 3, 10, 30, and 90 minutes. GMPS-RNA was denatured at 70° C. for 3 minutes and allowed to slow cool at room temperature prior to dilution to final reaction buffer conditions, transfer to ice, and addition of BrBK. Reactions were quenched on ice with 235 mM sodium thiosulfate and run on a denaturing 7 M urea 8% polyacrylamide APM gel. $kobs$ values were determined as the negative slope of the linear range of data points from plots relating the concentration of unreacted GMPS- RNA vs. time. Round 10 and round 12 pools were used for cloning and sequencing.

Binder	activity [s⁻¹]
B2	0.0022
B3	0.0051
B4	0.00144
B5	0.0012
B6	0.0018
B7	0.0017
B8	0.00075
B9	0.00128
B10	0.00149
B11	0.00067
B12	0.0017

Molecular target: des-Arg9-bradykinin (UniProt P01042 P01042:381-388, des-Arg9)
Sequence (P01042 whole entry, looked up, change not shown, one chain of several): as the sequence (P01042 whole entry, looked up, one chain of several) above
Assay: competition; inhibition of reaction of 12.1 with BrBK; +/-0.5
Conditions: tags: peptide analog

Binder	Ki [µM]
B1	2600

Molecular target: Rev (HIV-1, UniProt P04618 P04618:1-116)
Sequence (P04618 whole entry, one chain of several): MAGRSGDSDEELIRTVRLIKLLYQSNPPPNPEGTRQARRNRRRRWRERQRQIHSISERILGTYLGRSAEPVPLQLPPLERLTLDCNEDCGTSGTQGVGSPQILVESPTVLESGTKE
Assay: EMSA; covalent complex without UV, resistant to 7M urea PAGE, in presence of human nuclear extract, on ice
Conditions: not given
Method: Trunc24 (SEQ ID NO:226) photo-independent crosslinking with HIV-1 Rev in the presence of human nuclear extracts was determined as follows: Trunc24 RNA, nuclear extracts, and Rev protein were combined and incubated on ice for 10 min. Samples were mixed 1:1 with 8M urea loading buffer and placed on a 7M urea, 8% polyacrylamide gel for analysis.

Binder	binding result
GGGGAUUAACAGGCACACCUGUUAACCCU (ssRNA, 5-iodouracil at all U) [Trunc24]	binds
